Data on eleven molecules can be found in US20240124585A1 (SUTRO BIOPHARMA, published 2024).

The target of test [1] is T1, human CD3 on T-cell lines (CD3-expressing Jurkat cells; HUT78 cells) (human, UniProt P07766 23-207).
T1 construct: On cells it stands in the CD3/TCR complex
Put plainly: flow cytometry, HUT78 cells. On the technique in general: In flow cytometry, cells or beads pass a laser one at a time.

Test [2] has as its target T1, human CD3 on T-cell lines …. Put plainly: flow cytometry, HUT78 cells. The source holds these as a separate data set.
Test [3] addresses T2, human CD3 epsilon (Acro Cat #CDE-H5223) (human, UniProt P07766 23-126).
T2 construct: Bought recombinant protein; also called rhCD3E
Put plainly: SPR (Biacore), antibody captured, human CD3 epsilon analyte. Here is the method:
(§1) Anti-Fab or anti-Fc polyclonal antibodies were immobilized onto a CM5 chip (GE Life Sciences) using amine coupling chemistry (from Amine Coupling Kit, GE Life Sciences). The immobilization steps were carried out at a flow rate of 25 μl/min in 1×HBS-EP+ buffer (GE Life Sciences; 10× Stock diluted before use). The sensor surfaces were activated for 7 min with a mixture of NHS (0.05 M) and EDC (0.2 M). The Anti-Fab or Anti-Fc antibodies were injected over all 4 flow cells at a concentration of 25 μg/mL in 10 mM sodium acetate, pH 4.5, for 7 min. Ethanolamine (1 M, pH 8.5) was injected for 7 min to block any remaining activated groups.
(§2) Off-rate and kinetic binding experiments were performed at 25° C. using 1×HBS-EP+ buffer. Test and control antibodies were injected over the anti-Fab or anti-Fc surface at concentrations of 5-10 μg/mL for 12 seconds at a flow rate of 10 μL/min on flow cells 2, 3 and 4, followed by a buffer wash for 30 seconds at the same flow rate. […] After capturing ligand (antibody) on the anti-Fc or anti-Fab surface, the analyte (human CD3 epsilon, Acro Cat #CDE-H5223) was bound for 180 seconds, followed by a 600 second dissociation phase at a flow rate of 50 μL/min. Between each ligand capture and analyte binding cycle, regeneration was carried out using two injections of 10 mM Glycine pH 2.0 for 30 seconds at 30 μL/min, followed by a 30 second buffer wash step.
(§3) The data was fit with the Biacore T200 Evaluation software, using a 1-1 Langmuir binding model. KD (affinity, nM) was determined as a ratio of the kinetic rate constants calculated from the fits of the association and dissociation phases.

For test [4], the target named is T2, human CD3 epsilon (Acro Cat #CDE-H5223). The test is described as above. Here is the method:
as §1, §2, §3
This is another data set of the same source.

Test [5] has as its target T3, cynomolgus CD3 epsilon (cynomolgus monkey, UniProt Q95LI5 22-117, limits assumed).
T3 construct: Recombinant protein; also called cyno CD3E
T3 sequence: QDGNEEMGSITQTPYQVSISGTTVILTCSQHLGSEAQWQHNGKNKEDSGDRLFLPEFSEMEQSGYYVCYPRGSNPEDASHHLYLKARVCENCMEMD
Put plainly: SPR (Biacore), antibody captured, cynomolgus CD3 epsilon analyte.

Test [6] deals with T3, cynomolgus CD3 epsilon. The test is described as above. This is another data set of the same source.
Test [7] addresses T1, human CD3 on T-cell lines …. Put plainly: flow cytometry, HUT78 cells. The source holds these as a separate data set.
In test [8] the target is T2, human CD3 epsilon (Acro Cat #CDE-H5223). Put plainly: SPR (Biacore), antibody captured, human CD3 epsilon analyte. Here is the method:
as §1, §2, §3
This is another data set of the same source. Background: In SPR one partner is held on a chip, and binding of the other changes the refractive index at the surface.

Read-outs that look alike come from different tables or passages of the source.

T1 sequence (P07766 23-207 limits assumed): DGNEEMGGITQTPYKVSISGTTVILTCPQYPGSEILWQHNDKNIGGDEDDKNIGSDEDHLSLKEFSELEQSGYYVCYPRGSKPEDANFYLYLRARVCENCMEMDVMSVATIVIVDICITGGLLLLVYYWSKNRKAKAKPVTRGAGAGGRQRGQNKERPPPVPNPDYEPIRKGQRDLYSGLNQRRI
T2 sequence (P07766 23-126 limits assumed): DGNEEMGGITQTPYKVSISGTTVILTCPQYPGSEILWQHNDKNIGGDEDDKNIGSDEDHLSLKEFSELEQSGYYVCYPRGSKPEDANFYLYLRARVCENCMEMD

B1: 2037-B10-Lc6 (antibody)
heavy: not shown
light: DIQMTQSPSSLSASVGDRVTITCGSSTGAVTSGYYPNWLQQKPGQAPRGLIGGTKFLAPGVPSRFSGSLSGGKATLTISSLQPEDFATYYCALWYSNRWVFGGGTKVEIKRTVAAPSVFIFPPSDEQLKSGTASVVCLLNNFYPREAKVQWKVDNALQSGNSQESVTEQDSKDSTYSLSSTLTLSKADYEKHKVYACEVTHQGLSSPVTKSFNRGEC
notes: human IgG1, kappa; also called Kappa Lc6; Parent HC + Kappa Lc6
For the molecule B1, in test [1], the “Bmax (MFI)” value was 1320 MFI. Also, the Kd – broadly, a measure of binding affinity in units of concentration – in test [1] came to 0.8 nM; in test [2], 1.6 nM; in test [3], 0.648 nM; in test [4], 1.96 nM; in test [5] it was 0.413 nM; in test [6], 0.56 nM. In addition, the “HUT78 Bmax” value in test [2] was 1780. Moreover, the koff (commonly a measure of how fast the partners let go of each other) stood at 0.000278 s⁻¹ in test [3], 0.000479 s⁻¹ in test [4], 0.000311 s⁻¹ in test [5] and 0.000375 s⁻¹ in test [6]. The kon (as a rule, a measure of how fast the partners come together) in test [3] turned out to be 430000 M⁻¹ s⁻¹; in test [4] it was 244000 M⁻¹ s⁻¹; in test [5], 753000 M⁻¹ s⁻¹; in test [6], 670000 M⁻¹ s⁻¹.

B2: 2037-B10-Lc4 (antibody)
heavy: not shown
light: DIQMTQSPSSLSASVGDRVTITCGSSTGAVTSGYYPNWYQQKPGKAPKLLIGGTKFLAPGVPSRFSGSLSGGKATLTISSLQPEDFATYYCALWYSNRWVFGGGTKVEIKRTVAAPSVFIFPPSDEQLKSGTASVVCLLNNFYPREAKVQWKVDNALQSGNSQESVTEQDSKDSTYSLSSTLTLSKADYEKHKVYACEVTHQGLSSPVTKSFNRGEC
notes: human IgG1, kappa; also called Kappa Lc4
For B2, in test [1], the “Bmax (MFI)” value came out at 130 MFI and binding was characterised by a dissociation constant (Kd) of 30.4 nM. Further, the binding result in test [3] is “no binding”. In addition, the binding result in test [5] was “no binding”.

B3: 2037-B10-Lc3 (antibody)
heavy: not shown
light: DIQMTQSPSSLSASVGDRVTITCGSSTGAVTSGYYPNWLQQKPGQAPRGLIGGTKFLAPGVPSRFSGSGSGTDFTLTISSLQPEDFATYYCALWYSNRWVFGGGTKVEIKRTVAAPSVFIFPPSDEQLKSGTASVVCLLNNFYPREAKVQWKVDNALQSGNSQESVTEQDSKDSTYSLSSTLTLSKADYEKHKVYACEVTHQGLSSPVTKSFNRGEC
notes: human IgG1, kappa; also called Kappa Lc3
Turning to B3, in test [1], the “Bmax (MFI)” value amounted to 1040 MFI and the Kd was 62.6 nM. In test [3], this molecule yielded a Kd of 7.15 nM, a koff of 0.000393 s⁻¹ and a kon of 55000 M⁻¹ s⁻¹. In test [5], this molecule registered a Kd of 13.6 nM, a koff of 0.00069 s⁻¹ and a kon of 50600 M⁻¹ s⁻¹.

B4: 2037-B10-Lc1 (antibody)
heavy: not shown
light: DIQMTQSPSSLSASVGDRVTITCGSSTGAVTSGYYPNWYQQKPGKAPKLLIGGTKFLAPGVPSRFSGSGSGTDFTLTISSLQPEDFATYYCALWYSNRWVFGGGTKVEIKRTVAAPSVFIFPPSDEQLKSGTASVVCLLNNFYPREAKVQWKVDNALQSGNSQESVTEQDSKDSTYSLSSTLTLSKADYEKHKVYACEVTHQGLSSPVTKSFNRGEC
notes: human IgG1, kappa; also called Kappa Lc1
In the case of B4, in test [1], the “Bmax (MFI)” value was determined as 514 MFI and the Kd amounted to 222 nM. Further, the binding result in test [3] is “no binding”. In addition, the binding result in test [5] is given as “no binding”.

B5: 2037-B10-Lc8 (antibody)
heavy: not shown
light: DTQVTQSPSLSASVGDRVTITCGSSTGAVTSGYYPNWLQQKPGQAPRGLIGGTKFLAPGVPSRFSGSLSGGKATLTISSLQPEDFATYYCALWYSNRWVFGGGTKVEIKRTVAAPSVFIFPPSDEQLKSGTASVVCLLNNFYPREAKVQWKVDNALQSGNSQESVTEQDSKDSTYSLSSTLTLSKADYEKHKVYACEVTHQGLSSPVTKSFNRGEC
notes: human IgG1, kappa; also called Kappa Lc8
In the case of B5, in test [1], the “Bmax (MFI)” value was found to be 1250 MFI and the Kd amounted to 0.3 nM. In test [3], the dissociation constant (Kd) amounted to 0.493 nM, the koff came to 0.000267 s⁻¹ and the kon stood at 541000 M⁻¹ s⁻¹. In test [5], this molecule displayed a Kd of 0.338 nM, a koff of 0.000311 s⁻¹ and a kon of 920000 M⁻¹ s⁻¹.

B6: 2037-B10-Lc5 (antibody)
heavy: not shown
light: DTQVTQSPSLSASVGDRVTITCGSSTGAVTSGYYPNWLQQKPGQAPRGLIGGTKFLAPGVPSRFSGSGSGTDFTLTISSLQPEDFATYYCALWYSNRWVFGGGTKVEIKRTVAAPSVFIFPPSDEQLKSGTASVVCLLNNFYPREAKVQWKVDNALQSGNSQESVTEQDSKDSTYSLSSTLTLSKADYEKHKVYACEVTHQGLSSPVTKSFNRGEC
notes: human IgG1, kappa; also called Kappa Lc5; Parent HC + Kappa Lc5
Regarding B6, in test [1], the “Bmax (MFI)” value came to 1200 MFI and the affinity, expressed as Kd, was 40.7 nM. Also, in test [2], the “HUT78 Bmax” value came to 1850 and the Kd was determined as 47 nM. In test [3], the Kd was determined as 12.2 nM, the koff came to 0.000464 s⁻¹ and the kon was 38200 M⁻¹ s⁻¹. In test [5], binding was characterised by a dissociation constant (Kd) of 8.28 nM, the koff turned out to be 0.000478 s⁻¹ and the kon stood at 57700 M⁻¹ s⁻¹.

B7: 2037-B10-Lc9 (antibody, V domains shown)
VH: not shown
VL: DTQVTQSPSLSASVGDRVTITCGSSTGAVTSGYYPNWLQQKPGQAPRGLIGGTKFLAPGVPSRFSGSLLGGKAALTISSLQPEDFATYYCALWYSNRWVFGGGTKVEIKR
notes: human IgG1, kappa; also called Kappa Lc9
On to B7, for which, in test [1], the “Bmax (MFI)” value is 1230 MFI and binding was characterised by a dissociation constant (Kd) of 0.4 nM. In test [3], the Kd came to 0.511 nM, the koff was 0.000297 s⁻¹ and the kon came to 580000 M⁻¹ s⁻¹. In test [5], this molecule showed a Kd of 0.329 nM, a koff of 0.00034 s⁻¹ and a kon of 1.03e+06 M⁻¹ s⁻¹.

B8: 2037-B10-Lc10 (antibody, V domains shown)
VH: not shown
VL: DTQVTQSPSLSASVGDRVTITCGSSTGAVTSGYYPNWLQQKPGQAPRGLIGGTKFLAPGVPSRFSGSLLGGKAALTISSLQPEDFAEYYCALWYSNRWVFGGGTKVEIKR
notes: human IgG1, kappa; also called Kappa Lc10
Turning to B8, in test [1], the “Bmax (MFI)” value came to 1240 MFI and the Kd turned out to be 0.6 nM. In test [3], this molecule registered a Kd of 0.464 nM, a koff of 0.000314 s⁻¹ and a kon of 677000 M⁻¹ s⁻¹. Besides, in test [5], the affinity, expressed as Kd, was 0.371 nM; the koff came out at 0.000404 s⁻¹; the kon worked out at 1.09e+06 M⁻¹ s⁻¹.

B9: 2037-B10-Lc2 (antibody)
heavy: not shown
light: DTQVTQSPSLSASVGDRVTITCGSSTGAVTSGYYPNWYQQKPGKAPKLLIGGTKFLAPGVPSRFSGSGSGTDFTLTISSLQPEDFATYYCALWYSNRWVFGGGTKVEIKRTVAAPSVFIFPPSDEQLKSGTASVVCLLNNFYPREAKVQWKVDNALQSGNSQESVTEQDSKDSTYSLSSTLTLSKADYEKHKVYACEVTHQGLSSPVTKSFNRGEC
notes: human IgG1, kappa; also called Kappa Lc2
As to B9, in test [1], the “Bmax (MFI)” value is 63 MFI. In addition, binding in test [1] was put at a Kd of 24 nM. The binding result in test [3] and in test [5] was “no binding” in each case.

B10: 2037-B10-Lc7 (antibody)
heavy: not shown
light: DTQVTQSPSLSASVGDRVTITCGSSTGAVTSGYYPNWYQQKPGKAPKLLIGGTKFLAPGVPSRFSGSLSGGKATLTISSLQPEDFATYYCALWYSNRWVFGGGTKVEIKRTVAAPSVFIFPPSDEQLKSGTASVVCLLNNFYPREAKVQWKVDNALQSGNSQESVTEQDSKDSTYSLSSTLTLSKADYEKHKVYACEVTHQGLSSPVTKSFNRGEC
notes: human IgG1, kappa; also called Kappa Lc7
B10: in test [1], the “Bmax (MFI)” value was determined as 737 MFI and the Kd is 338 nM. In test [3], the binding result was “no binding”. In test [5], the binding result is “no binding”.

B11: SRP2037-B10 (antibody, V domains shown)
VH: not shown
VL: QTVVTQEPSLTVSPGGTVTLTCGSSTGAVTSGYYPNWLQQKPGQAPRGLIGGTKFLAPGTPARFSGSLLGGKAALTLSGVQPEDEAEYYCALWYSNRWVFGGGTQLTVTG
notes: human IgG1, lambda; also called 2037-B10 WT; 2037-B10 wt LC (lambda)
As for B11, the “Bmax (MFI)” value is 1040 MFI in test [7] and 1030 MFI in test [1]. For the same molecule, the Kd in test [7] was 0.15 nM; in test [1], 0.4 nM; in test [2], 2.33 nM; in test [8], 0.465 nM; in test [3], 0.596 nM; in test [4], 2.2 nM. Also, the Kd in test [5] worked out at 0.416 nM; in test [6] it was 0.418 nM. The “HUT78 Bmax” value in test [2] came out at 1890. The koff is 0.000222 s⁻¹ in test [8]; 0.000306 s⁻¹ in test [3]; 0.000564 s⁻¹ in test [4]; 0.000368 s⁻¹ in test [5]; 0.000344 s⁻¹ in test [6]. For the same molecule, the kon turned out to be 478000 M⁻¹ s⁻¹ in test [8]; 514000 M⁻¹ s⁻¹ in test [3]; 256000 M⁻¹ s⁻¹ in test [4]; 884000 M⁻¹ s⁻¹ in test [5]; 824000 M⁻¹ s⁻¹ in test [6].
